Earlier results, collected in article PMC10299133.

Biological target: MET (Homo sapiens) (UniProt P08581)
Sequence (P08581 25-932): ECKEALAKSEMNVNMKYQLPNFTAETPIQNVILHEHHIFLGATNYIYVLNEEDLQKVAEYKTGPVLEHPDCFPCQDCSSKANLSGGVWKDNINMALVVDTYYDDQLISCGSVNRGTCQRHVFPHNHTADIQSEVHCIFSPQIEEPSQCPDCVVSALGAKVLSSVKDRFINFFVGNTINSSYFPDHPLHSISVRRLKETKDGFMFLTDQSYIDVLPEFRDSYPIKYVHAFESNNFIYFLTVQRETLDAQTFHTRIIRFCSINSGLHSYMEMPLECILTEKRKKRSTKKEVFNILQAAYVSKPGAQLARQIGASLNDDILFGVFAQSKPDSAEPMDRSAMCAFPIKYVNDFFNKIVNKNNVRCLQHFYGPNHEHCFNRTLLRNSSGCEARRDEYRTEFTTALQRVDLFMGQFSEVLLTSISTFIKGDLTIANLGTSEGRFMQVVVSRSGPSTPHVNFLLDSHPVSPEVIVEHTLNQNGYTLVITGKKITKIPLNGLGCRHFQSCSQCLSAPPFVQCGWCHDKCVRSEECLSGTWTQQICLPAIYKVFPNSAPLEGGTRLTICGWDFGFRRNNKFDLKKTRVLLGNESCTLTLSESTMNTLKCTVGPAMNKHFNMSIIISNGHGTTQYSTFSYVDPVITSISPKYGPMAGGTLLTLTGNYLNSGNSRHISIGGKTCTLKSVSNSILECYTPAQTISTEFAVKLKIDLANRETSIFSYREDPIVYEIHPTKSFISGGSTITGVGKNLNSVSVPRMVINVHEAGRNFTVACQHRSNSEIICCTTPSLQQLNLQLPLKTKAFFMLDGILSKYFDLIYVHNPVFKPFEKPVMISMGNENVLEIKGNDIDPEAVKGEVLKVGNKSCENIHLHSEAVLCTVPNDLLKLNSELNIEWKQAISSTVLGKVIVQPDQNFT

Substance: amivantamab
- Kd: 0.04 nM
